Measured values reported in US20260193669A1 (NYKODE THERAPEUTICS ASA, published 2026).

Target: the molecule itself
Test: blue native PAGE and Western blot of supernatant, Motavizumab detection; self-assembly

B1: PreF protein and ferritin (further polypeptide of DNA plasmids IV083 and IV085; also encoded alone by IV081) (other)
chain: QNITEEFYQSTCSAVSKGYLSALRTGWYTSVITIELSNIKENKCNGTDAKVKLIKQELDKYKNAVTELQLLMGSGNVGLGGAIASGVAVSKVLHLEGEVNKIKSALLSTNKAVVSLSNGVSVLTFKVLDLKNYIDKQLLPILNKQSCSISNPETVIEFQQKNNRLLEITREFSVNAGVTTPVSTYMLTNSELLSLINDMPITNDQKKLMSNNVQIVRQQSYSIMSIIKEEVLAYVVQLPLYGVIDTPCWKLHTSPLCTTNTKNGSNICLTRTDRGWYCDNAGNVSFFPQAETCKVQSNRVFCDTMNSRTLPSEVNLCNVDIFNPKYDCKIMTSKTDVSSSVITSLGAIVSCYGKTKCTASNKNRGIIKTFSNGCDYVSNKGVDTVSVGNTLYYVNKQEGKSLYVKGEPIINFYDPLVFPSDEFDASISQVNEKINQSLAFINKSDELLSGSGSESQVRQQFSKDIEKLLNEQVNKEMQSSNLYMSMSSWSYTHSLDGAGLFLFDHAAEEYEHAKKLIIFLNENNVPVQLTSISAPEHCFEGLTQIFQKAYEHEQHISESINNIVDHAIKSKDHATFNFLQWYVAEQHEEEVLFKDILDKIELIGNENHGLYLADQYVKGIAKSRKS
notes: Secreted into supernatant of Expi293F cells; 24-mer by native PAGE; also called further polypeptide (PreF protein)-ferritin nanoparticles, IV083 and IV085
  binding result: binds

B2: Single chain PreF protein and ferritin (further polypeptide of DNA plasmids IV082 and IV084; also encoded alone by IV080) (other)
chain: QNITEEFYQSTCSAVSKGYLSALRTGWYTSVITIELSNIKENKCNGTDAKVKLIKQELDKYKNAVTELQLLMGSGNVGLGGAIASGVAVCKVLHLEGEVNKIKSALLSTNKAVVSLSNGVSVLTFKVLDLKNYIDKQLLPILNKQSCSISNIETVIEFQQKNNRLLEITREFSVNAGVTTPVSTYMLTNSELLSLINDMPITNDQKKLMSNNVQIVRQQSYSIMCIIKEEVLAYVVQLPLYGVIDTPCWKLHTSPLCTTNTKEGSNICLTRTDRGWYCDNAGSVSFFPQAETCKVQSNRVFCDTMNSRTLPSEVNLCNVDIFNPKYDCKIMTSKTDVSSSVITSLGAIVSCYGKTKCTASNKNRGIIKTFSNGCDYVSNKGVDTVSVGNTLYYVNKQEGKSLYVKGEPIINFYDPLVFPSDEFDASISQVNEKINQSLAFIRKSDELLSGGSSGSSGGSDIIKLLNEQVNKEMQSSNLYMSMSSWCYTHSLDGAGLFLFDHAAEEYEHAKKLIIFLNENNVPVQLTSISAPEHKFEGLTQIFQKAYEHEQHISESINNIVDHAIKCKDHATFNFLQWYVAEQHEEEVLFKDILDKIELIGNENHGLYLADQYVKGIAKSRKSGS
notes: Secreted into supernatant of Expi293F cells; 24-mer by native PAGE; also called further polypeptide (PreF protein)-ferritin nanoparticles, IV082 and IV084
  binding result: binds
